For test [1], the target named is T1, human IL-6 receptor (hIL-6R) (Homo sapiens, UniProt P08887).
T1 sequence (P08887 20-357 limits assumed): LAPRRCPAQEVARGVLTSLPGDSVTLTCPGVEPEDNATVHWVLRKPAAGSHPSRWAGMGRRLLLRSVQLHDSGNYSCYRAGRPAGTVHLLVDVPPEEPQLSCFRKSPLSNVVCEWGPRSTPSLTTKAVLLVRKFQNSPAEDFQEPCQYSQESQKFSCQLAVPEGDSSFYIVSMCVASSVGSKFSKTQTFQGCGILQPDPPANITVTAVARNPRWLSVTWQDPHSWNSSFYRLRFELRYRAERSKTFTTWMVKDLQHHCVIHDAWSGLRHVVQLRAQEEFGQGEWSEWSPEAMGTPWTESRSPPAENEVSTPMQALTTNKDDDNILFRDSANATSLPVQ
Put plainly: IgG ELISA for hIL-6R binding under small molecule conditions of Table 12. Particulars: IgG 2.5 μg/mL. The procedure:
Three types of obtained antibodies 6RNMSC1-2_F02, 6RNMSC1-3_G02, and GC413 were subjected to ELISA under the nine conditions shown in Table 12. The antigen used was biotin-labeled hIL-6R.
First, a StreptaWell 96 microtiter plate (Roche) was coated with 100 μL of PBS containing biotin-labeled hIL-6R at room temperature for one hour or longer. […] 100 μL of each of the purified IgGs prepared at 2.5 μg/mL using Sample Buffer containing small molecules at the final concentrations shown in Table 12 were added to each well, and the plate was let still at room temperature for one hour to allow each IgG to bind to biotin-labeled hIL-6R present in each well. After washing with Wash Buffer containing small molecules at the final concentrations shown in Table 12, HRP-conjugated anti-human IgG antibody (BIOSOURCE) diluted with Sample Buffer containing the same small molecules was added to each well and the plate was incubated for one hour. After washing with Wash Buffer containing respective small molecules, the chromogenic reaction of TMB single solution (ZYMED) added in each well was terminated by adding sulfuric acid. Then, the color development was measured by absorbance at 450 nm.
A general note: An ELISA detects its analyte on a solid surface through an enzyme-linked reagent.

For test [2], the target named is T1, human IL-6 receptor (hIL-6R). Put plainly: phage ELISA for hIL-6R binding in the presence/absence of small molecule cocktail (SC). Particulars: absorbance at 450 nm. How it is done: From a single colony of E. coli obtained in (6-1), a phage-containing culture supernatant was collected according to a conventional method (Methods Mol. Biol. (2002) 178, 133-145). […] A StreptaWell 96 microtiter plate (Roche) was coated overnight with 100 μL of TBS containing biotin-labeled hIL-6R. […] After removing 2% skim milk/TBS, purified phages were added to each well of the plate, and the plate was left still at room temperature for one hour to allow antibody-presenting phages to bind to biotin-labeled hIL-6R present in each well in the presence/absence of SC. Each well was washed with TBST or SC/TBST, and HRP-conjugated anti-M13 antibody (Amersham Pharmacia Biotech) diluted with TBS or SC/TBS was added thereto, and the plate was incubated for one hour. After washing with TBST or SC/TBST, the chromogenic reaction of TMB single solution (ZYMED) added in each well was terminated by adding sulfuric acid. Then, the color development was measured by absorbance at 450 nm.

The source of these data is patent publication US20210180049A1 (CHUGAI SEIYAKU KABUSHIKI KAISHA, priority 2013, published 2021).

B1: 6RNMSC1-2_F02: antibody binding hIL-6R in the presence of kynurenine; heavy chain SEQ ID NO: 32, light chain SEQ ID NO: 33 (antibody, listed as Homo sapiens, V domains shown)
VH: QVQLVQSGAEVKKPGSSVKVSCKASGGTFSSYAISWVRQAPGQGLEWMGGIIPIFGTANYAQKFQGRVTITADESTSTAYMELSSLRSEDTAVYYCARDAPVVARPRGAFDIWGQGTMVTVSS
VL: DIVMTQTPLSSPVTLGQPASISCRSSQSLVHSDGNTYLSWLQQRPGQPPRLLIHEISNRFSGVPDRFSGSGAGTNFTLKISRVEAEDVGVYYCMQATQFPRTFGQGTKVEIK
In the case of B1, the “absorbance under condition 9 (no small molecule) compared to condition 8 (cocktail of all small molecules)” value in test [1] (absorbance at 450 nm) is given as “significantly lower”. Moreover, in test [1] (conditions 1-9 of Table 12, absorbance at 450 nm), the “small molecule in whose presence the antibody binds hIL-6R” value is “binds to the antigen hIL-6R in the presence of kynurenine”. The “binding activity to the antigen hIL-6R in the presence of a small molecule mixture” value in test [2] is “having binding activity”.
